Source: US20220242958A1, “BISPECIFIC NANOBODIES” (Ablynx N.V., priority 2013, published 2022)
Where two headings read alike, the source gives them in different places.

Assays:
CXCR4 on MOLM-13 cells = target: T1, CXCR4 on MOLM-13 cells (Homo sapiens, UniProt P61073); test: CXCL12/SDF-1a induced chemotaxis of MOLM-13 cells; type: cell-based; conditions: average of 2-3 independent experiments; unit inferred; read-out: MOLM-13 IC50, inhibition of CXCL-12 induced chemotaxis
T1 construct: endogenous in cells; host or cells: MOLM-13
T1 sequence (P61073 whole entry): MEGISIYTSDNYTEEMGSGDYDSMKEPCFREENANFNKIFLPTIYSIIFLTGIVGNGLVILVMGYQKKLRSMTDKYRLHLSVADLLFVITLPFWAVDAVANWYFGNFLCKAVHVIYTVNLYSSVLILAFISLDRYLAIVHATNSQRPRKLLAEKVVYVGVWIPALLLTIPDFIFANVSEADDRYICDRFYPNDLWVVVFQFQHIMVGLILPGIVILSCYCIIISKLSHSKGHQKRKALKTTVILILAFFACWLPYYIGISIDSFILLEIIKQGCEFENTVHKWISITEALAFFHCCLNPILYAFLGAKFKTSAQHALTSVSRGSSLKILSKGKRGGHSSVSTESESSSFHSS
Description: (§1) To verify if bispecific CXCR4-IL3Ra polypeptides show increased affinity and potency on cells expressing both receptors, a CXCR4-dependent functional assay was carried out. To this end SDF-1a dependent chemotaxis on Jurkat E6-1 (CXCR4+/IL3Ra−), and MOLM-13 cells (CXCR4+/IL3Ra+) was performed for direct comparison of cells expressing both or only one receptor. Since the functional blockade is only mediated via CXCR4, avidity by the simultaneous binding of the anti-IL3Ra Nanobody® is expected to translate into increased potency in inhibition of chemotaxis.
Bispecific polypeptides were analyzed for inhibition of CXCL12-induced chemotaxis on cells endogenously expressing CXCR4. As chemoattractant a concentration of 750 pM SDF-1a was used on 100,000 cells/well for the Jurkat cell line, and 500,000 cells/well for the MOLM-13 cell line. On each plate the corresponding monovalent CXCR4 Nanobody was included as reference, allowing to calculate the fold increase of the bispecific within each plate. As additional control 1:1 mixtures of monovalent Nanobodies were included. In Table 9 the respective IC50 values are shown (average of n=3 experiments). […]
Dose-dependent inhibition of CXCL12-induced chemotaxis by the panel of bispecific CD4-CXCR4 Nanobodies was determined on Jurkat (CXCR4+/CD4 low), and Molm-13 cells (CXCR4++/CD4++). […]

CXCR4 on Jurkat cells = target: T2, CXCR4 on Jurkat cells (Homo sapiens, UniProt P61073); test: Binding of CXCR4 Nanobodies to Jurkat cells
T2 construct: endogenous in cells; host or cells: Jurkat E6-1
T2 sequence (P61073 whole entry): as above

[1] = target: T3, CXCR4 on Jurkat E6-1 cells (Homo sapiens, UniProt P61073); test: CXCL12/SDF-1a induced chemotaxis of Jurkat E6-1 cells; type: cell-based
T3 construct: endogenous in cells; host or cells: Jurkat E6-1
T3 sequence (P61073 whole entry): as above
Description: as §1
Bispecific polypeptides were analyzed for inhibition of CXCL12-induced chemotaxis on cells endogenously expressing CXCR4. As chemoattractant a concentration of 750 pM SDF-1a was used on 100,000 cells/well for the Jurkat cell line, and 500,000 cells/well for the MOLM-13 cell line. On each plate the corresponding monovalent CXCR4 Nanobody was included as reference, allowing to calculate the fold increase of the bispecific within each plate. As additional control 1:1 mixtures of monovalent Nanobodies were included. In Table 9 the respective IC50 values are shown (average of n=3 experiments).
To verify if bispecific CXCR4-IL-3Ra polypeptides show increased affinity and potency on cells expressing both receptors, a CXCR4-dependent functional assay was done. Since MOLM-13 cells express CD4 in conjunction with CXCR4 and CD123, the same experimental set-up was used as described for the CXCR4-CD123 bispecific Nanobodies (see: Example 1.5.5).
Dose-dependent inhibition of CXCL12-induced chemotaxis by the panel of bispecific CD4-CXCR4 Nanobodies was determined on Jurkat (CXCR4+/CD4 low), and Molm-13 cells (CXCR4++/CD4++). As reference anti-CXCR4 antibody 12G5 was included on each plate. […] Remarkably, bispecific constructs in the inverse orientation were able to block CXCR4 function, despite their reduced affinity for CXCR4 due to the unfavourable position, although the blockade was partial. The much larger potency increases observed with Nanobodies targeting the CD4 and CXCR4 combination is most likely related to the higher relative expression levels of CD4 compared to CD123 on the Molm-13 cells.

[2] = target: T4, CXCR4 on Caki-CXCR4 cells (Homo sapiens, UniProt P61073); test: Binding of CXCR4 Nanobodies to Caki-CXCR4 cells
T4 construct: expressed in transfected cells; host or cells: Caki-CXCR4
T4 sequence (P61073 whole entry): as above

CXCR4-VLP = target: T5, CXCR4-VLP (Homo sapiens, UniProt P61073); test: ELISA binding to CXCR4 viral lipoparticles (VLP)
T5 construct: purchased Integral Molecular (printed 'Molecular Integral')
T5 sequence (P61073 whole entry): as above
Description: Binding of CXCR4 Nanobodies to CXCR4-expressing cells was assessed on different cell lines, to assess EC50 values. For CXCR4 the membrane insertion is needed for proper conformation and functionality of the receptor. Therefore CXCR4 Nanobodies were characterized for binding to viral lipoparticles (VLP; Molecular Integral) expressing CXCR4 versus control lipoparticles in ELISA. To this end VLPs were coated at 0.5 U/well overnight at 4° C. using anti-myc antibodies for detection. Over all different binding assays, Nanobody 14D09 always exerted lower binding affinity than 14A02, as indicated by a shift in EC50 values. The results are depicted in FIG. 1.3.
To assess if the formatting into bispecific constructs affected the target binding capacity of the individual Nanobodies, the bispecific Nanobodies were analysed for binding to recombinant IL-3Ra (R&D Systems) in ELISA and to CXCR4 viral lipoparticles (Integral Molecular). […] However, CXCR4 binding of constructs with either CXCR4#1 or CXCR4#2 is retained only in one orientation, when the CXCR4 Nanobody is at the N-terminal position. The bispecific constructs where the CXCR4 Nanobody is positioned C-terminal show a 50-100-fold loss in binding to CXCR4-VLPs.

[3] = target: T4, CXCR4 on Caki-CXCR4 cells; test: Biotinylated SDF-1 displacement on Caki-CXCR4 cells (flow cytometry); type: binding; conditions: 30 nM biotinylated SDF-1; read-out: Ligand competition Biotin-SDF-1 IC50
Description: CXCR4 Nanobodies were analysed for their ability to compete with the ligand CXCL12 (or SDF-1a) for receptor binding, by displacement of biotinylated SDF-1 on Caki-CXCR4 cells in flow cytometry. To this end serial dilutions of Nanobodies were incubated with 30 nM of biotinylated SDF-1 (R&D Systems Fluorokine kit) on cells, after which ligand binding was visualised using extravidin-PE. The biotin-SDF-1 competitor concentration used in this assay was below the EC50 value obtained in dose-titration, where IC50 values should reflect the Ki.

- IC50 (CXCR4 on MOLM-13 cells): 8.62 nM
- EC50 (CXCR4 on Jurkat cells): 11 nM
- IC50 ([1]; average of 2-3 independent experiments, unit inferred, read-out: Jurkat E6-1 IC50, inhibition of CXCL-12 induced chemotaxis): 10.4 nM
- IC50 ([1]; cell line not stated, read-out: IC50 of monovalent CXCR4 Nanobody (chemotaxis potency)): 10 nM
- IC50 ([1]; monovalent CXCR4 Nanobodies, Table 4, read-out: Chemotaxis Jurkat IC50): 11 nM
- EC50 [2]: 9.9 nM
- EC50 (CXCR4-VLP): 7.28 nM
- IC50 [3]: 18.4 nM
B1: CXCR4#1: anti-CXCR4 Nanobody, SEQ ID NO: 1 (protein)
VHH: EVQLVESGGGLVQAGGSLRLSCVASGISSSKRNMGWYRQAPGKQRESVATISSGGNKDYTDAVKDRFTISRDTTKNTVYLQMNSLKPEDTAVYYCKIEAGTGWATRRGYTYWGQGTQVTVSS
